The results in this text go back to patent publication US20050238665A1.

The assay deals with Crotalus durissus terrificus venom. In words: ELISA on C.d.t. venom (5 µg/ml coat).

Take “preimmune IgY (chicken egg yolk) (antibody)”: the absorbance at dilution 1:5 was less than 0 absorbance, the absorbance at dilution 1:25 was 0 absorbance, the absorbance at dilution 1:125 is 0.003 absorbance and the absorbance at dilution 1:625 was 0 absorbance. Moreover, the absorbance at dilution 1:3125 came out at 0.002 absorbance and the absorbance, undiluted turned out to be 0.003 absorbance.
